Experimental data taken from patent US20230340128A1 (Xencor, published 2023).
Positions count from the first letter of the chain named.

Legend:
human mesothelin (MSLN) [1] = biological target: T1, human mesothelin (MSLN) (human, UniProt Q13421 296-580, limits assumed); assay: KD quoted in the FIG. 25 legend; Octet (BLI) per FIGS. 20-21
T1 construct: Antigen of the Octet KD values

[2] = biological target: MSLN on OVCAR8 cells (~90K MSLN antigens/cell) (UniProt Q13421 296-598); assay: binding to OVCAR8 cells, MFI APC against mAb concentration
[3] = biological target: T2, MSLN on OVCAR8 cells (~90K MSLN antigens/cell) (UniProt Q13421 296-598); assay: flow cytometry on OVCAR8 cells, 1 h at 4 C, anti-human-Fc A647 secondary
T2 construct: whole, on cells; Endogenous expression on a cancer cell line
Protocol: (§1) In this experiment, 50,000 OVCAR8 cells (˜90K MSLN antigens/cell) were seeded per well in a plate. Anti-human-Fc secondary (A647) was added for 30 min at 4° C., and binding was assessed via FACs. FIG. 39C depicts that the CD28×MSLN bsAbs in neither 1+1-Fab-scFv format nor the 2+1 mAb-scFv format antibodies show any significant off target binding. In this experiment, 50,000 SKOV3 cells (˜9K MSLN antigens/cell) were seeded per well in a plate. Anti-human-Fc secondary (A647) was added for 30 min at 4° C., and binding was assessed via FACs.
(§2) In order to assess the binding of MSLN×CD28 bsAbs in different formats, an experiment was conducted in which 50,000 OVCAR8 cells (˜90K MSLN antigens/cell) were seeded per well in a plate. Anti-human-Fc secondary (A647) was added for 30 min at 4° C., and binding was assessed via FACs.

[4] = biological target: T2, MSLN on OVCAR8 cells (~90K MSLN …); assay: as above; remark: listed apart in the source
Protocol: as §1, §2

human mesothelin (MSLN) [5] = biological target: T1, human mesothelin (MSLN); assay: label in the legend box: nominal affinity of the MSLN binding domain (paragraph 422 calls such label values KD); method not stated on the sheet
human CD28 [6] = biological target: T3, human CD28 (human, UniProt P10747 19-152, limits assumed); assay: label in the legend box: nominal affinity of the CD28 binding domain (paragraph 422 calls such label values KD); method not stated on the sheet
T3 construct: also called Cluster of Differentiation 28; Tp44

CD3 = biological target: T4, CD3; assay: label in the legend box: nominal affinity of the CD3 binding domain; method not stated on the sheet
T4 chain 1: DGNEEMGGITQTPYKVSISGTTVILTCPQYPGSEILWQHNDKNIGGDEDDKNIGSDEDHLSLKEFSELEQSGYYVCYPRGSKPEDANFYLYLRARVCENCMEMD
T4 chain 2: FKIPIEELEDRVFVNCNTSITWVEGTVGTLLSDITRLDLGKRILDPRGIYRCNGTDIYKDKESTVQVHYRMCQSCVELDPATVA

human CD28 [7] = biological target: T3, human CD28; assay: method not stated; Monovalent CD28 KD, table headed 1A7[CD28] H1.14_L1.71 (aka 37 nM)
human mesothelin (MSLN) [8] = biological target: T1, human mesothelin (MSLN); assay: KD of its MSLN binding domain as quoted in the text
human CD28 [9] = biological target: T3, human CD28; assay: KD of its CD28 binding domain as quoted in the text
human mesothelin (MSLN) [10] = biological target: T1, human mesothelin (MSLN); assay: label in the legend box: nominal affinity of the MSLN binding domain (paragraph 422 calls such label values KD); method not stated on the sheet; remark: listed apart in the source
human CD28 [11] = biological target: T3, human CD28; assay: label in the legend box: nominal affinity of the CD28 binding domain (paragraph 422 calls such label values KD); method not stated on the sheet; remark: listed apart in the source
human mesothelin (MSLN) [12] = biological target: T1, human mesothelin (MSLN); assay: KD quoted in the text; Octet (BLI) per FIGS. 20-21

B1: XENP32751 (bispecific antibody)
chain 1: QVQLVQSGAEVKKPGASVKVSCKASGYTFTSYWMHWVRQAPGQGLEWMGMIHPNSDNTIYYEKFQGRVTMTVDKSISTAYMELSRLRSDDTAVYYCAIIITPVVPKFDYWGQGTLVTVSSASTKGPSVFPLAPSSKSTSGGTAALGCLVKDYFPEPVTVSWNSGALTSGVHTFPAVLQSSGLYSLSSVVTVPSSSLGTQTYICNVNHKPSDTKVDKKVEPKSCDKTHTCPPCPAPPVAGPSVFLFPPKPKDTLMISRTPEVTCVVVDVKHEDPEVKFNWYVDGVEVHNAKTKPREEEYNSTYRVVSVLTVLHQDWLNGKEYKCKVSNKALPAPIEKTISKAKGQPREPQVYTLPPSREEMTKNQVSLTCDVSGFYPSDIAVEWESDGQPENNYKTTPPVLDSDGSFFLYSKLTVDKSRWEQGDVFSCSVMHEALHNHYTQKSLSLSPGK
chain 2: QVQLVQSGAEVKKPGASVKVSCKASGYTFTSYWMHWVRQAPGQGLEWMGMIHPNSDNTIYYEKFQGRVTMTVDKSISTAYMELSRLRSDDTAVYYCAIIITPVVPKFDYWGQGTLVTVSSASTKGPSVFPLAPSSKSTSGGTAALGCLVKDYFPEPVTVSWNSGALTSGVHTFPAVLQSSGLYSLSSVVTVPSSSLGTQTYICNVNHKPSNTKVDKKVEPKSCGGGGSGGGGSQAVVTQEPSLTVSPGGTVTLTCGSSTGAVTTSNYANWVQQKPGKSPRGLIGGTNKRAPGVPARFSGSLLGGKAALTISGAQPEDEADYYCALWYSNHWVFGGGTKLTVLGKPGSGKPGSGKPGSGKPGSEVQLVESGGGLVQPGGSLRLSCAASGFTFSTYAMNWVRQAPGKGLEWVGRIRSKANNYATYYADSVKGRFTISRDDSKNTLYLQMNSLRAEDTAVYYCVRHGNFGDSYVSWFAYWGQGTLVTVSSGGGGSGGGGSKTHTCPPCPAPPVAGPSVFLFPPKPKDTLMISRTPEVTCVVVDVKHEDPEVKFNWYVDGVEVHNAKTKPREEQYNSTYRVVSVLTVLHQDWLNGKEYKCKVSNKALPAPIEKTISKAKGQPREPQVYTLPPSREQMTKNQVKLTCLVKGFYPSDIAVEWESNGQPENNYKTTPPVLDSDGSFFLYSKLTVDKSRWQQGNVFSCSVMHEALHNHYTQKSLSLSPGK
chain 3: DIVMTQSPDSLAVSLGERATINCKASHDVGTYVAWYQQKPGQSPKLLIYWASTRHTGVPDRFTGSGSGTDFTLTISSLQAEDVAVYFCQQYSSYPLTFGAGTKLEIKRTVAAPSVFIFPPSDEQLKSGTASVVCLLNNFYPREAKVQWKVDNALQSGNSQESVTEQDSKDSTYSLSSTLTLSKADYEKHKVYACEVTHQGLSSPVTKSFNRGEC
- Kd (human mesothelin (MSLN) [1]): ~12.8 nM
- EC50 (read off the curve) [2]: ~0.05 µg/mL

B2: XENP39566 (bispecific antibody)
heavy: B1 chain 1 with M50W, M430L, N436S
scFv-Fc: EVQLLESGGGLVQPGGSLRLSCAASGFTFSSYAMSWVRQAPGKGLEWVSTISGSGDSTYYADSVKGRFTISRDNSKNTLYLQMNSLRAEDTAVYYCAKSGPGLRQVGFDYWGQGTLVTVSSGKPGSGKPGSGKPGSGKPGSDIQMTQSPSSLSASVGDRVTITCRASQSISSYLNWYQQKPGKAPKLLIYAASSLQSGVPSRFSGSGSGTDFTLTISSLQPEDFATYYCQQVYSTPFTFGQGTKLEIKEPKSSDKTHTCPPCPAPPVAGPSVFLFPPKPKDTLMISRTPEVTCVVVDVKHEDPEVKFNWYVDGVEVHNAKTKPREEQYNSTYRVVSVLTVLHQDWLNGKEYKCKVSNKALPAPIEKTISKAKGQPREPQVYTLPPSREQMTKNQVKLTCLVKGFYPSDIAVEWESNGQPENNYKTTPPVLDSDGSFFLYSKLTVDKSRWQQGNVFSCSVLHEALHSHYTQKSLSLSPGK
light: B1 chain 3 with Y32S
notes: also called XENP39566 MSLN (9 nM) x CD28 (180 nM) 1+1 Fab-scFv-Fc
- EC50 (read off the curve) [3]: ~4 µg/mL
- EC50 (read off the curve) [4]: ~4 µg/mL
- Kd (human mesothelin (MSLN) [5]): 9 nM
- Kd (human CD28 [6]): 180 nM

B3: XENP32947 (bispecific antibody)
chain 1: B1 chain 1 with M50W
chain 2: B1 chain 2 with M50W
chain 3: B1 chain 3 with Y32S
- Kd (human mesothelin (MSLN) [1]): 9.2 nM
- Kd (CD3): 30 nM

B4: XENP39553 (bispecific antibody)
heavy: B1 chain 1 with M430L, N436S
scFv-Fc: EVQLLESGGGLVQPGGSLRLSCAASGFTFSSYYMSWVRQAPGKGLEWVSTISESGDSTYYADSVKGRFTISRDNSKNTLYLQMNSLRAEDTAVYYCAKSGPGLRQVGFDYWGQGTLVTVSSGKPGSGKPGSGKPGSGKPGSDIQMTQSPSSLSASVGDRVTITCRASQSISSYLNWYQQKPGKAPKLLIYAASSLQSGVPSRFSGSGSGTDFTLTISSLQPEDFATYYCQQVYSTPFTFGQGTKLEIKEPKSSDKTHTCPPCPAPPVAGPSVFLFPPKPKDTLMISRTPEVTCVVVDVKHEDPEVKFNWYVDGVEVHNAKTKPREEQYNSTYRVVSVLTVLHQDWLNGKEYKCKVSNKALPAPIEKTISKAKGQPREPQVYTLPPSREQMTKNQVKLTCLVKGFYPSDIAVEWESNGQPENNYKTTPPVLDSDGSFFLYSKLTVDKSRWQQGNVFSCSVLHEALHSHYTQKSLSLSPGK
light: B1 chain 3 with Y32S
notes: also called MSLN (0.3 nM) x CD28 (37 nM) 1+1 Fab-scFv-Fc
- Kd (human CD28 [7]): 60 nM
- Kd (human mesothelin (MSLN) [8]): 0.3 nM
- Kd (human CD28 [9]): 37 nM

B5: XENP39554 (bispecific antibody)
heavy: B1 chain 1 with M430L, N436S
scFv-Fc: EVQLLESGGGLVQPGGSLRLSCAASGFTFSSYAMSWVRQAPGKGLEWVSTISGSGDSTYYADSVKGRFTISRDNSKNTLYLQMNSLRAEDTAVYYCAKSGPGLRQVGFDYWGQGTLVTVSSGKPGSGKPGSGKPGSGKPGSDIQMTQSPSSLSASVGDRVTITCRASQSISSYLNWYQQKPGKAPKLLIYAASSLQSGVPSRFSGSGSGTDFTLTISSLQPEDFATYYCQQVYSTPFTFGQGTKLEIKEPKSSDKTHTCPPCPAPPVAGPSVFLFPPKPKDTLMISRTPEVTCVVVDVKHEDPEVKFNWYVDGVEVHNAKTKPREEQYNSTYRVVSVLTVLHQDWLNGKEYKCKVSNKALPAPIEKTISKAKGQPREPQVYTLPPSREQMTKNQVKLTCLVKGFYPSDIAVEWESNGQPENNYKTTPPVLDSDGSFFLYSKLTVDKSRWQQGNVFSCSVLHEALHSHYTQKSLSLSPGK
light: B1 chain 3 with Y32S
notes: also called XENP39554 MSLN (0.3 nM) x CD28 (180 nM) 1+1 Fab-scFv-Fc
- EC50 (read off the curve) [3]: ~0.01 µg/mL
- EC50 (read off the curve) [4]: ~0.01 µg/mL
- Kd (human mesothelin (MSLN) [5]): 0.3 nM
- Kd (human CD28 [6]): 180 nM

B6: XENP39569 (bispecific antibody)
heavy: B1 chain 1 with M50W, M430L, N436S
scFv-Fc: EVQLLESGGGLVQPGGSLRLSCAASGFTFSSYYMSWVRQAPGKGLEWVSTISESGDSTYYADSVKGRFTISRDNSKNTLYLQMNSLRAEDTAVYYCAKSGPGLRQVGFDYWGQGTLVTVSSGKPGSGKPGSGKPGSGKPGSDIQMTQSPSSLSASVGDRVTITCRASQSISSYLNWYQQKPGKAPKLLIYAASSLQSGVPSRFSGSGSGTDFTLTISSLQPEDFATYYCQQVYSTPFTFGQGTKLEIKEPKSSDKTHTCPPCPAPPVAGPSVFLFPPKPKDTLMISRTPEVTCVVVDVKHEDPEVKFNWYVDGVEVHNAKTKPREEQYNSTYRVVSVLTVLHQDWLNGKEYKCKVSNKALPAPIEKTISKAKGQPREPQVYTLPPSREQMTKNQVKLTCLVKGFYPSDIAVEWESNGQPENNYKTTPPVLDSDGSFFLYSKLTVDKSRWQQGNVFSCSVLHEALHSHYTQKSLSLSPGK
light: B1 chain 3 with T31Q, Y32S
notes: also called XENP39569 MSLN (90 nM) x CD28 (37 nM) 1+1
- Kd (human mesothelin (MSLN) [10]): 90 nM
- Kd (human CD28 [11]): 37 nM

B7: MESO-C H1_L1 (Fab, V domains shown)
VH: QVQLVQSGAEVKKPGASVKVSCKASGYTFTSYWMHWVRQAPGQGLEWMGMIHPNSDNTIYYEKFQGRVTMTVDKSISTAYMELSRLRSDDTAVYYCAIIITPVVPKFDYWGQGTLVTVSS
VL: DIVMTQSPDSLAVSLGERATINCKASHDVGTSVAWYQQKPGQSPKLLIYWASTRHTGVPDRFTGSGSGTDFTLTISSLQAEDVAVYFCQQYSSYPLTFGAGTKLEIK
- Kd (human mesothelin (MSLN) [12]): 0.3 nM
